B1: TPR t1 (parent)
chain: GACCAAUCUGCCCUCAGAGCUCGAGAACAUCUUCGGAUGCAGAGGAGGCAGGCUUCGGUGGCGCGAUAGCGCCAACGUCCUCAACCUCCAAUGCAUCCCACCACAUGAUGAUGCCUGAAGAGCCUUGGUUUUUUG

Variants of: B1
Assay: polymerase ribozyme fitness, log enrichment relative to wild type (log ratio); higher = more active; in vitro selection for triplet polymerase activity
Outline: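 Mutant libraries for each subunit of a heterodimeric triplet polymerase ribozyme were made by PCR and then transcribed. Each library underwent one round of in vitro selection in triplicate: annealing with a biotinylated primer, the partner subunit and triplets, frozen incubation at −7 °C, gel excision of extended constructs, streptavidin-bead capture and RT-PCR. Input and output libraries were Illumina-sequenced, and only genotypes with ≥10 input reads and ≥1 read per output were kept. Fitness is the logarithm, base 2, of genotype enrichment over wild-type enrichment, computed from inverse-variance-weighted replicate averages.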

Variant | polymerase ribozyme fitness (log ratio)
GACCAAUCUGCCCUCAGAGCUCGAGAACAUCUUCGUAUGCAGAGGAGGCAGGCUUCGGUGGCACGAUAGCGCCAACGUCCUCAACCUCCAAUGCAUCCCACCACAUGAUGAUGCCUGAAGAGCCUUGGUUUUUUG [G36U G63A] | -1.69
GACCAAUCUGCCCUCAGAGCUCGAGAACAUCUUCGGCUGCAGAGGAGGCAGGCUUCGGUGGCGCGAUAGGGCCAACGUUCUCAACCUCCAAUGCAUCCCACCACAUGAUGAUGCCUGAAGUGCCUUGGUUUUUUG [A37C C70G C79U A121U] | 0.503
GACCAAUCUGCCCUCAGAGCUCGAGAACAUCUUCGGCUGCAGAGGAGGCAGGCUUCGGUGGCGCGAUAGUGCCAACGUCCUCAAUCUCCAAUGCAUCUCACCACAUGAUGAUUCCUGAAGAGCCUUGGUUUUAUG [A37C C70U C85U C98U G113U U133A] | -5.51
GACCAAUCUGCCCUCAGAGCUCGAGAACAUCUUCGUAUGCAGAGGAGGCAGGCUUCGGUGGCGCGAUAGCGCCAACGCCCUCAACCUCGAAUGCAUCCCAACACAUGAUGAUGCCUGAAGAGCCUUGGUUUUUUG [G36U U78C C89G C101A] | -4.13
GACCAAUCUGCCCUCAGAGCUCGAGAACAUCUUCGUAUGCAGAGGAGGCAGGCAUCGGUGGCGCGAUAGCGACAACGUCCUCAACCUCCAAUGCAUCCCACCACAUGAUGAUGCCUGAAGAGCCUUGGUUUUUUG [G36U U54A C72A] | -0.869
GACCAAUCUGCCCUCAGAGCUCGAGAACAUCUUCGUAUGCAGAGGAGGCAGGCUUCGGUGGCGCGAUAGCGCCAACGUCCUCAACCUCCAAUGCAUCCCACCACAUGAUGAUGCCUGAAGAGCCUUGGUCUUUUG [G36U U130C] | -0.893
GACCAAUCUGCCCUCAGAGCUCGAGAACAUCUUCGGCUGCAGAGGAGGCAGGCUUCGGUGGCGCGAUAGCGCCAACGUCCUCAACCUCCACUGCAUCCCACCACAUGAUGAUGCCUGAAGAGCCUUGGUUUUUUG [A37C A91C] | -0.946
GACCAAUCUGCCCUCAGAGCUCGAGAACAUCUUCGUAUGCAGAGGAGGCAGGCUUCGGUGGCGCGAUAGCUCCAACGUCCUCAACCACCAAUGCAUCCCACCAAAUGAUGAUUCUUGAAGAGCCUUGGUAUUUUG [G36U G71U U87A C104A G113U C115U U130A] | -7.12
GACCAAUCUGCCCUCAGAGCUCGAGAACAUCUUCGGCUGCAGAGGAGGCAGGUUUCGGUGGCGCGAUAGCGCCAACGUCCGCAACCUCCAAUGCAUCCCACCACAUGAUGAUGCCUGAAGAGCCUUGGUUUUUUG [A37C C53U U81G] | -2.81
GACCAAUCUGCCCUCAGAGCUCGAGAACAUCUUCGUAUGCAGAGGAGGCAGGCUUCGGAGGCGCGAUAGCGCCAACGUCCUCAACCUCCAAUCCAUCCCACCACAUGAUGAUGCCUGAACAGCCUUGGUUUUUUG [G36U U59A G93C G120C] | -0.759
GACCAAUCUGCCCUCAGAGCUCGAGAACAUCUUCGGCUGCAGAGGAGGCAGGUUUCGGUGGCGCGAUAGCGCCAACGUCCUCAACCUCCAAUGCAUCCCACCACAUGAUGAUGCCUGAAGAGCCUUGGUUUUUUG [A37C C53U] | -0.73
GACCAAUCUGCCCUCAGAGCUCGAGAACAUCUUCGGCUGCAGAGGAGGCAGGGUUCGGUGGCGCGAUAGCCCCAACGUCCUUAACCUCCAAUGCAUCCCAACACAUGAUGAUGCCUGAUGAGCCUUGGUUUUUUG [A37C C53G G71C C82U C101A A119U] | -2
GACCAAUCUGCCCUCAGAGCUCGAGAACAUCUUCGGCUGCAGAGGAGGCAGGCUUCGGUGGCGCGAUAGCGGCAACGUCCUCAACCUCCAAUGCAUCCCACCACAUGAUGAUGCCUGAAGAGGCUUGGUUUUUUG [A37C C72G C123G] | 0.506
GACCAAUCUGCCCUCAGAGCUCGAGAACAUCUUCGUAUGCAGAGGAGGCAGGCUCCGGUGGCGCGCUAGCGCCAACGUCCUCAACCUCCAAUGCAUCCCACCACAUGAUGAUGCCUGAAGAGCCUUGGUUUUUUG [G36U U55C A66C] | -3.51
GACCAAUCUGCCCUCAGAGCUCGAGAACAUCUUCGGCUGCAGGGGAGGCAGGCUUCGGUGGCGCGAUAGCGCCAACGUCCUCAACCUCCAAUGCAUCCCACCACAUGAUGAUGCCUGAAGAGCCUUGGUUUUUUG [A37C A43G] | -2.56
GACCAAUCUGCCCUCAGAGCUCGAGAACAUCUUCGGCUGCAGAGGAGGCAGGCUUUGGUGGCGCGAUAGCGCCAACGUCCUCAACCUCCAAUGCAUCCCACCACAUGAUGAUGCCUGAAGAGCCUUGGUUUUUUG [A37C C56U] | 0.093
GACCAAUCUGCCCUCAGAGCUCGAGAACAUCUUCGUAUGCAGAGGAGGCAGGCUUCGGUGGCACGAUAGCGCCAACGUCCUCAAACUCCAAUGCAUCCCACCACAUGAUGAUGCCUGAAGAGCCUUGGUUUUUUG [G36U G63A C85A] | -3.57
GACCAAUCUGCCCUCAGAGCUCGAGAACAUCUUCGGCUGCAGCGGAGGCAGGAUUCGGUGGCGCGAUAGCCCCAACGUCCUCAACUUCCACUGCAUCCCACCACAUGAUGAUGCCUGAAGAGCCUUGGUUUUUUG [A37C A43C C53A G71C C86U A91C] | -6.26
GACCAAUCUGCCCUCAGAGCUCGAGAACAUCUUCGUAAGCAGAGGAGUCAGGCUUCGGUGUCACGAUAGCGCCAACGUCCUCAACCUCCAAUGCAUUCCACCACAUGAUGAUGCUUGAAGAGCCUUGGUUUUUUG [G36U U38A G48U G61U G63A C97U C115U] | -5.64
GACCAAUCUGCCCUCAGAGCUCGAGAACAUCUUCGUAUGCAGAGGAGGCAGGCUUCGGUGGCGCGAUAUCGCCAACGUCCUCAACCUCCAAUGCAUCCCACCACAUGAUGAUGCCUGAAGAGCCUUGGUUUUUUG [G36U G69U] | -0.697
GACCAAUCUGCCCUCAGAGCUCGAGAACAUCUUCGUAUGCAGAGGAGGCAGGCUUCGGUGGCGCGAUAUCGCCAACGUCCUCAACCUCCAAUGCACCCCAUCACAUGAUGAUGCCUGAAGAGCCUAGGUUUUUUG [G36U G69U U96C C101U U126A] | -2.59
